Laboratory results: US12356911B2, “Group of UDP-glycosyltransferase for catalyzing carbohydrate chain elongation and application thereof” (GSYNBIOT (SHANGHAI) CO., LTD, priority 2017, dated 2025)

Columns and labels:
Assay type in all cases: biochemical
[1] = In vitro transglycosylation at C-3, Rh2 as glycosyl acceptor, UDP-glucose as donor; settings: crude enzyme (E. coli lysate supernatant); TLC, FIG. 13, FIG. 15
Source text: (§1) Cell lysate of recombinant E. coli with empty vector pET28a was used as a control.

[2] = In vitro transglycosylation at C-20, CK as glycosyl acceptor, UDP-glucose as donor; settings: crude enzyme (E. coli lysate supernatant); TLC/HPLC, FIG. 2, 3, 12, 16
Source text: as §1
As shown in FIG. 16: Protopanaxadiol Ginsenoside CK is used as a glycosyl acceptor, and UDP-glucose is used as a glycosyl donor.

[3] = In vitro transglycosylation at C-20, Rd as glycosyl acceptor, UDP-glucose as donor; settings: crude enzyme (E. coli lysate supernatant); TLC/HPLC, FIG. 2, 3, 11
Source text: as §1

[4] = In vitro transglycosylation at C-6, Rg1 as glycosyl acceptor, UDP-xylose as donor; settings: crude enzyme (E. coli lysate supernatant); TLC and HPLC, FIG. 7-9

Molecule	product formation from Rh2 and UDP-glucose (Rg3) [1]	product formation from CK and UDP-glucose (Gypenoside LXXV) [2]	product formation from Rd and UDP-glucose (Rb1) [3]	product formation from Rg1 and UDP-xylose (notoginsenoside R1) [4]
PNUGT29-5: Panax notoginseng glycosyltransferase, 447 amino acids, SEQ ID NO: 47 (protein, Panax notoginseng) MDIEKGRISIVMLPFLAHGHISPFFELAKHLSKRNCNIFLCSTPINLSSIKNRVSDKDSSASIKLVELHLPSSPDLPPQYHTTNGLPSHLMVPLKNAFETVGPTFSEILKTLDPDLLIYDFNPSWAPEIALSHNIPAVYFLTSAAATSSVALRALKNPGEKYPFPDFYDNSNITPEPPSADKMKLFHDFVACFKRSCDIILIKSFRELEGKYIDLLSTLSKKTLVPVGPLVQDPLGHDEDPKTGHLINWLDKRAESTVVFVCFGSEYFPSNEELEEVAIGLEISMVNFILAVRFLEGEKKGVLPEGFVQRVGDRGLVVEGWAPQARILGHSSTGGFVSHCGWSSIMESVKFGVPVIAMARHLDQPLNAKLAAEVGVGMEVVRDENGKYTREAIAEVIRKVVMEKNGEVIRRKARELSDKMKEKGEQEIGRAVEELVQICKMMKDAQY	can catalyze the extension of a glucosyl at the C-3 glycosyl of Rh2 to generate Rg3	can catalyze the extension of a glucosyl at the C-20 glycosyl to generate Gypenoside LXXV	can catalyze the extension of a glucosyl at the C-20 glycosyl of Rd to generate Rb1	–
PNUGT29-7: Panax notoginseng glycosyltransferase, 447 amino acids, SEQ ID NO: 51 (protein, Panax notoginseng) MDIEKGRISIVMLPFLAHGHISPFFELAKHLSKRNCNIFLCSTPINLSSIKNRVSDKDSSASIKLVELHLPSSPDLPPQYHTTNGLPSHLMVPLKNAFETVGPTFSEILKTLDPDLFIYDFNPSWAPEIALSHNIPAVYFLTSAAATSSVALRALKNPGEKYPFPDFYDNSNITPEPPSADKMKLFHDFVACFKRSCDIILIKSFRELEGKYIDLLSTLSKKTLVPVGPLVQDPLGHDEDPKTGHLINWLDKRAESTVVFVCFGSEYFPSNEELEEVAIGLEISMVNFILAVRFLEGEKKGVLPEGFVQRVGDRGLVVEGWAPQARILGHSSTGGFVSHCGWSSIMESVKFGVPVIAMARHLDQPLNAKLAAEVGVGMEVVRDENGKYTREAIAEVIRKVVMEKNGEVIRRKARELSDKMKEKGEQEIGRAVEELVQICKMKKDAQY	can catalyze the extension of a glucosyl at the C-3 glycosyl of Rh2 to generate Rg3	can catalyze the extension of a glucosyl at the C-20 glycosyl to generate Gypenoside LXXV	can catalyze the extension of a glucosyl at the C-20 glycosyl of Rd to generate Rb1	–
PNUGT29-6: Panax notoginseng glycosyltransferase, 447 amino acids, SEQ ID NO: 49 (protein, Panax notoginseng) MDIEKGRISIVMLPFLAHGHISPFFELAKHLSKRNCNIFLCSTPINLSSIKNRVSGKDSSASIKLVELHLPSSPDLPPQYHTTNGLPSHLMVPLKNAFETVGPTFSEILKTLDPDLLIYDFNPSWAPEIALSHNIPAVYFLTSAAATSSVALRALKNPGEKYPFPDFYDNSNITPEPPSADKMKLFHDFVACFKRSCDIILIKSFRELEGKYIDLLSTLSKKTLVPVGPLVQDPLGHDEDPKTGHLINWLDKRAESTVVFVCFGSEYFPSNEELEEVAIGLEISMVNFILAVRFLEGEKKGVLPEGFVQRVGDRGLVVEGWAPQARILGHSSTGGFVSHCGWSSIMESVKFGVPVIAMARHLDQPLNAKLAAEVGVGMEVVRDENGKYTREAIAEVIRKVVMEKNGEVIRRKARELSDKMKEKGEQEIGRAVEELVQICKMKKDAQY	can catalyze the extension of a glucosyl at the C-3 glycosyl of Rh2 to generate Rg3	can catalyze the extension of a glucosyl at the C-20 glycosyl to generate Gypenoside LXXV	can catalyze the extension of a glucosyl at the C-20 glycosyl of Rd to generate Rb1	–
PNUGT29-9: Panax notoginseng glycosyltransferase, 447 amino acids, SEQ ID NO: 55 (protein, Panax notoginseng) MDIEKGRISIVMLPFLAHGHISPFLELAKHLSKRNCNIFLCSTPINLSSIKNRVSDKDSSASIKLVELHLPSSPDLPPQYHTTNGLPSHLMVPLKNAFETVGPTFSEILKTLDPDLLIYDFNPSWAPEIALSHNIPAVYFLTSAAATSSVALRALKNPGEKYPFPDFYDNSNITPEPPSADKMKLFHDFVACFKRSCDIILIKSFRELEGKYIDLLSTLSKKTLVPVGPLVQDPLGHDEDPKTGHLINWLDKRAESTVVFVCFGSEYFPSNEELEEVAIGLEISMVNFILAVRFLEGEKKGVLPEGFVQRVGDRGLVVEGWAPQARILGHSSTGGFVSHCGWSSIMESVKFGVPVIAMARHLDQPLNAKLAAEVGVGMEVVRDENGKYKREAIAEVIRKVVMEKNGEVIRRKARELSEKMKETGEQEIGRAVEELVQICKMKKDAQY	can catalyze the extension of a glucosyl at the C-3 glycosyl of Rh2 to generate Rg3	can catalyze the extension of a glucosyl at the C-20 glycosyl to generate Gypenoside LXXV	can catalyze the extension of a glucosyl at the C-20 glycosyl of Rd to generate Rb1	–
PNUGT29-8: Panax notoginseng glycosyltransferase, 447 amino acids, SEQ ID NO: 53 (protein, Panax notoginseng) MDIEKGRISIVMLPFLAHGHISPFFELAKHLSKRNCNIFLCSTPINLSSIKNRVSDKDSSASIKLVELHLPSSPDLPPQYHTTNGLPSHLMVPLKNAFETVGPTFSEILKTLDPDLLIYDFNPSWAPEIALSHNIPAVYFLTSAAATSSVALRALKNPGEKYPFPDFYDNSNITPEPPSADKMKLFHDFVACFKRSCDIILIKSFRELEGKYIDLLSTLSKKTLVPVGPLVQDPLGHDEDPKTGHLINWLDKRAESTVVFVCFGSEYFPSNEELEEVAIGLEISMVNFILAVRFLEGEKKGVLPEGFVQRVGDRGLVVEGWAPQARILGHSSTGGFVSHCGWSSIMESVKFGVPVIAMARHLDQPLNAKLAAGVGVGMEVVRDENGKYKREAIAEVIRKVVMEKNGEVIRRKARELSEKMKETGEQEIGRAVEELVQICKMKKDAQY	can catalyze the extension of a glucosyl at the C-3 glycosyl of Rh2 to generate Rg3	can catalyze the extension of a glucosyl at the C-20 glycosyl to generate Gypenoside LXXV	can catalyze the extension of a glucosyl at the C-20 glycosyl of Rd to generate Rb1	–
GT29-7: Ginseng UDP-glycosyltransferase, 446 amino acids, SEQ ID NO: 16 (protein, misc_feature - GT29-7; Panax ginseng) MDNQKGRISIALLPFLAHGHISPFFELAKQLAKRNCNVFLCSTPINLSSIKNRVSDKDSSASIKLVELHLPSSPDLPPHYHTTNGLPSHLMIPLRNAFDTAGPTFSEILKTLNPDLLIYDFNPSWAPEIASSHNIPAVCFIIGGAASSSMSLHSFKNPGEKYPFLDFDDNSNITPEPPSADNMKLLINFMTCFERSCDIILIKSFRELEGKYFDFFSTLSDKTLVPVGPLVQDPMGHNEDPKTEQFINWLDKRAESTVVFVCFGSECFLSNEELEEVAIGLEISMVNFIWAVRLIEGEKKGVLPEGFVQRVGDRGLVVEEWAPQARILGHSSTGGFVSHCGWNSITESMKFGVPVIAMARHFDQPLNGKLAAEVGVGMEVVRDENGKYKREGIAEVIRKVVVEKSGEVIRRKARELSEKMKEKGEQEIDRVVEELVQICKKKKDEQ	–	–	–	can catalyze the formation of Notoginsenoside RI
GT29-4: Ginseng UDP-glycosyltransferase, 446 amino acids, SEQ ID NO: 12 (protein, misc_feature - GT29-4; Panax ginseng) MDNQEGRISIALLPFLAHGHISPFFELAKHLSKRNCNIFLCSTPINLSSIKNRISDKDSSASIKLVELHLPSSPDLPPHYHTTNGLPSHLMVPLRNAFETAAPTFSEILKTLNPDLLIYDFNPSWAPEIASSHNIPAVCFIIGGAASFSMSLHSFKNPGEKYPFLDFDDNSNITPEPPSADNMKLLLDFMTCFERSCDIILIKSFRELEGKYFDFYSTLSDKTLVPVGPLVQDPMGHNEDPKTEQFINWLDKRAESTVVFVCFGSEYFLSNEELEEVAIGLEISMVNFIWAVRLIEGEKKGVLPEGFVQRVGDRGLVVEGWAPQARILGHSSTGGFVSHCGWSSITESMKFGVPVIAMARHLDQPLNGKLAAEVGVGMEVVRDENGKYKREGIAEVIRKVVVEKSGEVMRRKARELSEKMKEKGEEEIDRAVEELVQICKKKKDAQ	–	–	–	can catalyze the formation of Notoginsenoside RI
GT29-5: Ginseng UDP-glycosyltransferase, 446 amino acids, SEQ ID NO: 14 (protein, misc_feature - GT29-5; Panax ginseng) MDNQKGRISIVMLPFLAHGHISPFFELAKHLSKRNCNIFLCSTPINLSSIKNRISDKDSSASIKLVELHLPSSPDLPPHYHTTNGLPSHLMVPLRNAFETAAPTFSEILKTLNPDLLIYDFNPSWAPEIASSHNIPAVCFIIGGAASFSMSLHSFKNPGEKYPFLDFDDNSNITPEPPSADNMKLLLDFMTCFERSCDIILIKSFRELEGKYIDLLSTLSDKTLVPVGPLVQDPMGHNEDPKTEQIINWLDKRAESTVVFVCFGSEYFLSNEELEEVAIGLEISMVNFIWAVRLIEGEKKGVLPEGFVQRVGDRGLVVEGWAPQARILGHSSTGGFVSHCGWSSIAESMKFGVPVIAMARHLDQPLNGKLAAEVGVGMEVVRDENGKYKREGIAEVIRKVVVEKSGEVIRRKARELSEKMKEIGEQLIDRAVEELVQICKKKKDEQ	–	–	–	can catalyze the formation of Notoginsenoside RI
